According to IntAct's records for PubMed 16834335:

B1: Modulator of FtsH protease HflC (Escherichia coli (strain K12)), P0ABC3 (parent)
chain: MRKSVIAIIIIVLVVLYMSVFVVKEGERGITLRFGKVLRDDDNKPLVYEPGLHFKIPFIETVKMLDARIQTMDNQADRFVTKEKKDLIVDSYIKWRISDFSRYYLATGGGDISQAEVLLKRKFSDRLRSEIGRLDVKDIVTDSRGRLTLEVRDALNSGSAGTEDEVTTPAADNAIAEAAERVTAETKGKVPVINPNSMAALGIEVVDVRIKQINLPTEVSEAIYNRMRAEREAVARRHRSQGQEEAEKLRATADYEVTRTLAEAERQGRIMRGEGDAEAAKLFADAFSKDPDFYAFIRSLRAYENSFSGNQDVMVMSPDSDFFRYMKTPTSATR
partner: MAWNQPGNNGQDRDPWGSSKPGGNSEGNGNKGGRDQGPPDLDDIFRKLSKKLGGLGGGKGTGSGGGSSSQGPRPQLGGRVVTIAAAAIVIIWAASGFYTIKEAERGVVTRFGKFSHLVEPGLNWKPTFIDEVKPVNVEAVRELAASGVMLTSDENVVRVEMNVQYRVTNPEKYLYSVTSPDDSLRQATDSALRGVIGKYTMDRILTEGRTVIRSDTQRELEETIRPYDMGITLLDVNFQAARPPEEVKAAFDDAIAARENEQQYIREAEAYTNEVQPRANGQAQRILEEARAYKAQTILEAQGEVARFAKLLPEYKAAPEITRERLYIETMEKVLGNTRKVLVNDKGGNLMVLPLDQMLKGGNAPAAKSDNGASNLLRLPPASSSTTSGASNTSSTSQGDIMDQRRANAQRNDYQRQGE

Variants of: B1
Settings: with hflk_ecoli hflK

Row | Variant | effect of a mutation on the interaction
1 | MRKSVIAIIIIVLVVLYMSVFVVKEGERGITLRFGKVLRDDDNKPLVYEPGLHFKIPFIETVKMLDARIQTMDNQADRFVTKEKKDLIVDSYIKWRISDFSRYYLATGGGDISQAEVLLKRKFSDRLRSEIGRLDVKDIVTDSRGRLTLEVRDALNSGSAGTEDEVTTPAADNAIAEAAERVTAETKGKVPVINPNSMAALGIEVVDVRIKQINLPTEVSEAIYNRMRAEREAVARRHRSQGQEEAEKLRATADYEVTRTLAEAERQGRIMRGEGDAEAAKLFADIFSKDPDFYAFIRSLRAYENSFSGNQDVMVMSPDSDFFRYMKTPTSATR [A286I] | decreasing interaction strength
